In publication PMC7570948 (2020):

T1: CCR7-eGFP stably expressed on 300-19 pre-B cells (human, UniProt P32248 25-378)
T1 chain: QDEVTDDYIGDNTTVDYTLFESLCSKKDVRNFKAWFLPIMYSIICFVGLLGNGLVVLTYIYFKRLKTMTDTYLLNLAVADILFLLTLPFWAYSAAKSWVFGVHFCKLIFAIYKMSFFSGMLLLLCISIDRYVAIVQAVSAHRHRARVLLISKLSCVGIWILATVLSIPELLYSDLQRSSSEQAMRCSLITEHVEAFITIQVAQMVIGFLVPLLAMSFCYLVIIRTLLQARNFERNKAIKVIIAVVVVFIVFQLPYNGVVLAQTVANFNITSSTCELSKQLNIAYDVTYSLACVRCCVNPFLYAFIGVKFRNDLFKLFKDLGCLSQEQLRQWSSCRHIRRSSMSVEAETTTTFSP


What was measured:
[1] = biological target: T1, CCR7-eGFP stably expressed on 300-19 …; experiment: FACS; 10°C, competition with 25 nM CCL19-Dy649P1 (printed as EC50)
[2] = biological target: T1, CCR7-eGFP stably expressed on 300-19 …; experiment: FACS; 37°C, competition with 25 nM CCL19-Dy649P1 (printed as EC50)
[3] = biological target: T1, CCR7-eGFP stably expressed on 300-19 …; experiment: FACS; 37°C, competition with 25 nM CCL19-Dy649P1 (printed as EC50; partial inhibition)

Binder	IC50 [1] [nM]	IC50 [2] [nM]	IC50 [3] [nM]
CCL19 (synthetic, unlabeled human CCL19) (ligand) GTNDAEDCCLSVTQKPIPGYIVRNFHYLLIKDGCRVPAVVFTTLRGRQLCAPPDQPWVERIIQRLQRTSAKMKRRSS	10.1	14.1	–
CXCL14 (synthetic, unlabeled human CXCL14) (ligand) SKCKCSRKGPKIRYSDVKKLEMKPKYPHCEEKMVIITTKSVSRYRGQEHCLHPKLQSTKRFIKWYNAWNEKRRVYEE	–	–	9.2
